From patent US20230203119A1 (IGM BIOSCIENCES, published 2023)
Changes are numbered by the printed parent chain. Names may count otherwise.

B1: 153 IgM + J*RI (anti-CD20 IgM antibody 153 with modified J-chain J*RI) (antibody)
VH: EVQLVQSGAEVKKPGESLKISCKGSGYSFTSYWIGWVRQMPGKGLEWMGIIYPGDSDTRYSPSFQGQVTISADKSITTAYLQWSSLKASDTAMYYCARHPSYGSGSPNFDYWGQGTLVTVSS
VL: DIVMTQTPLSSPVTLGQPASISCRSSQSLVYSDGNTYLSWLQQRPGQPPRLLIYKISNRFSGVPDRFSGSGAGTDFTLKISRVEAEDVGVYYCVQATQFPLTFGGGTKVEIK
chain: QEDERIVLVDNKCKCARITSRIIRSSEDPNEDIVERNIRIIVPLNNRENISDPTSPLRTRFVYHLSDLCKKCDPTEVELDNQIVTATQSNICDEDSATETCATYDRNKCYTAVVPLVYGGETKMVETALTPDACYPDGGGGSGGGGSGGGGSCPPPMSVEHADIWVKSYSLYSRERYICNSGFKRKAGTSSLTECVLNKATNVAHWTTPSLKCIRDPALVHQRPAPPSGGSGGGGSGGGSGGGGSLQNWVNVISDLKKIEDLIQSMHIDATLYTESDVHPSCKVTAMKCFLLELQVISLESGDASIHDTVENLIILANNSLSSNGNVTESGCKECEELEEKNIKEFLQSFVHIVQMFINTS
B2: KD-RI (anti-PD-L1 IgG with human IL-15Ralpha sushi domain and human IL-15 fused to its C-terminus) (antibody)
heavy: not shown
light: QSALTQPASVSGSPGQSITISCTGTSSDVGAYNYVSWYQQHPGKAPKLMIYDVSNRPSGVSNRFSGSKSGNTASLTISGLQAEDEADYYCSSYTSSSTRVFGTGTKVTVLGQPKANPTVTLFPPSSEELQANKATLVCLISDFYPGAVTVAWKADGSPVKAGVETTKPSKQSNNKYAASSYLSLTPEQWKSHRSYSCQVTHEGSTVEKTVAPTEC
notes: Heavy chain fusion protein and light chain as described in U.S. Pat. No. 10,407,502
B3: h3C5 IgM + J*RI (anti-PD-L1 IgM pentamer with modified J-chain J*RI) (antibody)
VH: QVQLQESGPGLVKPSETLSLTCTVSGFSLTSYDISWIRQPPGKGLEWIGVIWTGVGTNYNPSLKSRVTISVDTSKNQFSLKLSSVTAADTAVYYCARDPYYYGMDYWGQGTLVTVSS
VL: DIQMTQSPSSLSASVGDRVTITCRASQDISIWLSWYQQKPGKAPKLLIYKASNLHTGVPSRFSGSGSGTDFTLTISSLQPEDFATYYCLQSQSFPRTFGQGTKLEIK
chain: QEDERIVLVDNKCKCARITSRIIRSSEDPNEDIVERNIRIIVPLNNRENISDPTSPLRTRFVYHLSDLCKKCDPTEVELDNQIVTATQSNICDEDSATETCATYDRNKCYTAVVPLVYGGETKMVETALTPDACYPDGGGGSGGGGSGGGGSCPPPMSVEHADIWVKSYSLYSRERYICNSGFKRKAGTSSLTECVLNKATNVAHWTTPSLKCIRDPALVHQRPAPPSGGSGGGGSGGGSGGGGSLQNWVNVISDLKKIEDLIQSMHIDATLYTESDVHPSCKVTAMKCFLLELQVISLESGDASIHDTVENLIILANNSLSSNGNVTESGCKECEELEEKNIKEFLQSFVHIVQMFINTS
notes: IgM pentamer; Third chain is the modified J-chain J*RI (J* Y102A - IL-15Ralpha sushi - IL-15); also called H1-3C5 + J*RI; h3C5 + J*RI
B4: h3C5 IgM + JH (anti-PD-L1 IgM pentamer with J-chain fused to human serum albumin) (antibody)
VH: B3 VH
VL: B3 VL
chain: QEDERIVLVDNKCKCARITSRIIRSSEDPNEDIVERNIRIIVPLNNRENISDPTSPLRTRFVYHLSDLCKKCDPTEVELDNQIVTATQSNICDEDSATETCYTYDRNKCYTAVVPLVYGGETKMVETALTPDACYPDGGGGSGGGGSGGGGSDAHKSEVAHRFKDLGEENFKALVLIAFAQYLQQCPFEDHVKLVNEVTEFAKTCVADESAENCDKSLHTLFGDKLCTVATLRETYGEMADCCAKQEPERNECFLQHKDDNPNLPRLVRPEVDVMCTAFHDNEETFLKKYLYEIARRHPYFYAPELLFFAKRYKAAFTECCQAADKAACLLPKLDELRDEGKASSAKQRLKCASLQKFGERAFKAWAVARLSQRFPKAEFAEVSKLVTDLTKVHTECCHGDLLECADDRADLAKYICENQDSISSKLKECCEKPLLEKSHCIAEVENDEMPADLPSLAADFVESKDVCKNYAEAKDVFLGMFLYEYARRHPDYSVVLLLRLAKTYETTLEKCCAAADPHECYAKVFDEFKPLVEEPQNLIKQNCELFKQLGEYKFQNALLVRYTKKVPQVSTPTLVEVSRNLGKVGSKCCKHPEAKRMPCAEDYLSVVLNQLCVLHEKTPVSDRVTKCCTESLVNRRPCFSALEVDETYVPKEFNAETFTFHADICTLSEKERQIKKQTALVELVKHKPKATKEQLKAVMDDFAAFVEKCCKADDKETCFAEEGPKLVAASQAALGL
notes: IgM pentamer; Third chain is the modified J-chain J15HSA (no IL-15); also called H1-3C5 + JH; hu3C5+JH
B5: 3C5 IgM + J*RI-N4D/N65D (IL-15 double mutant N4D/N65D) (antibody)
VH: B3 VH
VL: B3 VL
chain: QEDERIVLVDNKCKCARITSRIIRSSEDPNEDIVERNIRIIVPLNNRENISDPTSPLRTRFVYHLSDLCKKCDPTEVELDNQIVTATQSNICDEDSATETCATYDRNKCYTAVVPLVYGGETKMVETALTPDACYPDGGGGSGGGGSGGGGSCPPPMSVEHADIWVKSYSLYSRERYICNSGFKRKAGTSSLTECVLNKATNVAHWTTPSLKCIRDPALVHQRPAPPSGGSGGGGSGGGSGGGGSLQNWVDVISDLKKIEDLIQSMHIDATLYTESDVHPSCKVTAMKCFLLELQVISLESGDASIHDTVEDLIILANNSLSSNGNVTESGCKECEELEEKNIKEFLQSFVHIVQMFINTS
B6: 3C5 H2L2 F(ab')2 (antibody, V domains shown)
VH: B3 VH with I48L, V71K
VL: B3 VL with V19I
notes: Tested as F(ab')2; also called 3C5 Fab
B7: h3C5 IgM + J* (anti-PD-L1 IgM pentamer with J-chain variant Y102A, no IL-15) (antibody)
VH: B3 VH
VL: B3 VL
chain: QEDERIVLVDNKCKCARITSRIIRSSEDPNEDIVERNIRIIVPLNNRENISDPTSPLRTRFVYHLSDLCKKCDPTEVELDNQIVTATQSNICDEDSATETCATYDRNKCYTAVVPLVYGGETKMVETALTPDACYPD
B8: m3c5-J*RI (anti-PD-L1 human IgM pentamer with m3c5 VH/VL and modified J-chain J*RI) (antibody)
VH: QVQLKESGPGLVAPSQSLSITCTVSGFSLTSYDISWVRQPPGKGLEWLGVIWTGVGTNYNSAFMSRLSISKDNSKSQVFLKMNSLQTDDTAMYYCVRDPYYYGMDYWGQGTSVTVSS
VL: B3 VL with T5N, V15L, R18T, V19I, K42N, A43I, K45E, S60P, F83I, Q100G
chain: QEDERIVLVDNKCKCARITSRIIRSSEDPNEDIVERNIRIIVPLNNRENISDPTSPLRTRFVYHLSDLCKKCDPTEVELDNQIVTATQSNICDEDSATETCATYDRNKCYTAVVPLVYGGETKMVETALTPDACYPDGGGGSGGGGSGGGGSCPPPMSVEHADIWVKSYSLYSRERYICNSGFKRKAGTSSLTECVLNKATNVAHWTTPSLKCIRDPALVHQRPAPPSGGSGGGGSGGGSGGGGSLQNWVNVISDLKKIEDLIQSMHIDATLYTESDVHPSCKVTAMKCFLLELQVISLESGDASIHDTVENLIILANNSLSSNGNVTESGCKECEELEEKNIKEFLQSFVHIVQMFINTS
B9: h3C5 IgM + SJ*RI (anti-PD-L1 IgM pentamer with modified J-chain SP34 scFv-J*-R-I) (bispecific antibody)
VH: B3 VH
VL: B3 VL
chain: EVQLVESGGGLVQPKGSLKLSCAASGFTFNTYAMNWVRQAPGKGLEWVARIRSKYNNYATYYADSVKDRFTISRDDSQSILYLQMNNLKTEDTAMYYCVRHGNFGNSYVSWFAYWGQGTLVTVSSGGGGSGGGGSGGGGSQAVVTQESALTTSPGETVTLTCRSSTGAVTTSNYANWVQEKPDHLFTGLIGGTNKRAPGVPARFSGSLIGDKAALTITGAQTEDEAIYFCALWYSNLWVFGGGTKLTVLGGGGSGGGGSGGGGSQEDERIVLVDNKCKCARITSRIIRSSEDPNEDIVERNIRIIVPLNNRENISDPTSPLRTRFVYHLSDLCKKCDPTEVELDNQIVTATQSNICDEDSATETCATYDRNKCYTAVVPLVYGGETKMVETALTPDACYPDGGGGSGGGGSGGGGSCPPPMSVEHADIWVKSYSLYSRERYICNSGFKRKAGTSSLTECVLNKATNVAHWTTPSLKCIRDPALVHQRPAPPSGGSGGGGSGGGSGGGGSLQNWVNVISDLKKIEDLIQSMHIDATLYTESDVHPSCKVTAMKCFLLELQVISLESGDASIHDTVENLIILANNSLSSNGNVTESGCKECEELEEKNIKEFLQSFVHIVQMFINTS

Key:
[1] = molecular target: T1, IL-15 receptor (β and γ subunits) on human CD8 T cells and NK cells (human, UniProt P14784 27-551; P31785 23-369); assay: cell-based or functional assay
T1 sequence (looked up) 1: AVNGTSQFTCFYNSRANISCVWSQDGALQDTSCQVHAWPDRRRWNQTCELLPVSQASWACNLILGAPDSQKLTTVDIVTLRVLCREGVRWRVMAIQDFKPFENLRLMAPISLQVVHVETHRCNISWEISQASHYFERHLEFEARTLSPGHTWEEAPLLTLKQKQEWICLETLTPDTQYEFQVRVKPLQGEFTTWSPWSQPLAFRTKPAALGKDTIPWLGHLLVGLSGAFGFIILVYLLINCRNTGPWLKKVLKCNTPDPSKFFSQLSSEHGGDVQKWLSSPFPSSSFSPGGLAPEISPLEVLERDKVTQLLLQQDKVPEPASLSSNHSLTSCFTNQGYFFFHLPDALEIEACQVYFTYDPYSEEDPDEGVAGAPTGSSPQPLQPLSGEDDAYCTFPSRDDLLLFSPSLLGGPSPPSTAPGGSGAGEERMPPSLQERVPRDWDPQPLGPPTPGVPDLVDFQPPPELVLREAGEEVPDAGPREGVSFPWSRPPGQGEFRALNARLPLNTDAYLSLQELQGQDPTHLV
T1 sequence (looked up) 2: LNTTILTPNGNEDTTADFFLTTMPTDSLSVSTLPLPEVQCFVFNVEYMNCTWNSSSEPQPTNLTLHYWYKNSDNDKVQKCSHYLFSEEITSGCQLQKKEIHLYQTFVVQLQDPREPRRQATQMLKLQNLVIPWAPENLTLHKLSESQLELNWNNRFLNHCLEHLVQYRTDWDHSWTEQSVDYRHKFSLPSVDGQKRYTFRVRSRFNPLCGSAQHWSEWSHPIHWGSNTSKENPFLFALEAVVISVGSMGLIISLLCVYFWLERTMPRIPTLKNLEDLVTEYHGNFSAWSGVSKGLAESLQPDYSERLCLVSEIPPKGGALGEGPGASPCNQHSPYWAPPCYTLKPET

PD-L1 = molecular target: T2, PD-L1 (UniProt Q9NZQ7 19-238, limits assumed); assay: ELISA on PD-L1
T2 construct: ELISA antigen; also called programmed cell death ligand-1 protein

[2] = molecular target: T1, IL-15 receptor (β and γ subunits) on …; assay: cell-based or functional assay; remark: listed apart in the source
[3] = molecular target: T1, IL-15 receptor (β and γ subunits) on …; assay: cell-based or functional assay; remark: listed apart in the source
[4] = molecular target: T1, IL-15 receptor (β and γ subunits) on …; assay: cell-based or functional assay; remark: listed apart in the source
[5] = molecular target: T3, human PD-L1 expressed on HEK-293T cells (human, UniProt Q9NZQ7 19-290); assay: high-throughput flow cytometry on HEK-293T cells expressing human PD-L1 and its alanine mutants
T3 construct: whole, on cells
Experimental: The epitope that the 3C5 H2L2 (VH: SEQ ID NO: 91, VL: SEQ ID NO: 94) antibody binds to on human PD-L1 was mapped using Alanine-scanning mutagenesis. Epitope mapping was performed by constructing an Alanine scan library of human PD-L1 which was then expressed on HEK-293T cells. Binding of the 3C5 H2L2 F(ab′)2 to each HEK-293 transfected PD-L1 mutant version was evaluated by high-throughput flow cytometry.

[6] = molecular target: T4, IL-15 receptor (β and γ subunits) on cynomolgus CD8 T cells (cynomolgus, UniProt Q38J85 27-551; A0A2K5VGJ6 23-369); assay: cell-based or functional assay
T4 sequence (looked up) 1: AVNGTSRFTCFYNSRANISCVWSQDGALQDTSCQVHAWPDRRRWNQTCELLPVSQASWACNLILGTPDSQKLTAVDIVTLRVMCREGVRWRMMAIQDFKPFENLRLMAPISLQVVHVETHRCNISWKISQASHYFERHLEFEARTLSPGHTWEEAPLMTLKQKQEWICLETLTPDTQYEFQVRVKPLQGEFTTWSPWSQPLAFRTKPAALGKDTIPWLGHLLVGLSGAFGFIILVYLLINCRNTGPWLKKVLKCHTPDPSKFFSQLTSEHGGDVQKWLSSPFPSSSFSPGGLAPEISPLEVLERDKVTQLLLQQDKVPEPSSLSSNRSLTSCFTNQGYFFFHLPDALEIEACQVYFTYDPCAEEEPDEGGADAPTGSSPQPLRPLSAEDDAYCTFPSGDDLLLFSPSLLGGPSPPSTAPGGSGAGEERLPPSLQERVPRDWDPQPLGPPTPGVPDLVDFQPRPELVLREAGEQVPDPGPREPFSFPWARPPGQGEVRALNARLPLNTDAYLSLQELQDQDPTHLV
T4 sequence (looked up) 2: T1 sequence (looked up) 2 with T14A, A16T, T22S, H141R, T228S, A326P

[7] = molecular target: T1, IL-15 receptor (β and γ subunits) on …; assay: cell-based or functional assay; remark: listed apart in the source

T2 sequence (Q9NZQ7 19-238 limits assumed): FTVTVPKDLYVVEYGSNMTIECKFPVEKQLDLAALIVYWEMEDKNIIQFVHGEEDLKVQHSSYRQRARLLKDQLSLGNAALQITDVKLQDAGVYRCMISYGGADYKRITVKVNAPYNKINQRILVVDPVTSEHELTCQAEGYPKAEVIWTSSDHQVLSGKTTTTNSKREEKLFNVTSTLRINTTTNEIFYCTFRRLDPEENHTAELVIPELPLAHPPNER
T3 sequence (Q9NZQ7 19-290): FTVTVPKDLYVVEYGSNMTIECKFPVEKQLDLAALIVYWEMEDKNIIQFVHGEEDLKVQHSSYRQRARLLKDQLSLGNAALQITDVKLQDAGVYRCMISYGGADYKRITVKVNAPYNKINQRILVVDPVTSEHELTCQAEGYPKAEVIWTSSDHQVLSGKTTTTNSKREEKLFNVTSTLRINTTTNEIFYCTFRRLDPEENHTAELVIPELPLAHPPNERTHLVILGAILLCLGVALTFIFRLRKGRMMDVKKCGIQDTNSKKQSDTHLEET

Row | Binder | CD8+ T cell proliferation (Ki-67) EC50 [1] | Kd (PD-L1) | NK cell proliferation (Ki-67) EC50, Donor 230 [2] | NK cell proliferation (Ki-67) EC50, Donor 403 [2] | CD8+ T cell proliferation (Ki-67) EC50, Donor 230 [3] | CD8+ T cell proliferation (Ki-67) EC50, Donor 403 [3] | also measured
1 | B1 | 0.64 nM | – | – | – | – | – | –
2 | B2 | 0.51 nM | 1.33 nM | – | – | – | – | –
3 | B3 | 0.1 nM | 0.04 nM | 0.027 nM | 0.027 nM | 0.31 nM | 0.51 nM | –
4 | B4 | > 100 nM | 0.05 nM | – | – | – | – | –
5 | B5 | – | – | – | – | – | – | CD8+ T cell proliferation (Ki-67), potency against the constructs with WT IL-15 [4]: 50 fold reduced potency; NK cell proliferation (Ki-67), potency against the constructs with WT IL-15 [4]: 100 fold reduced potency
6 | B6 | – | – | – | – | – | – | binding result [5]: binds
7 | B7 | – | – | > 80 nM | > 80 nM | > 80 nM | > 80 nM | –
8 | B8 | – | – | – | – | – | – | cynomolgus CD8+ T cell proliferation (Ki-67), average EC50 [6]: 6.85 nM; human CD8+ T cell proliferation (Ki-67), average EC50 [7]: 3.22 nM
9 | B9 | – | – | 0.63 nM | 0.71 nM | 0.03 nM | 0.34 nM | –
